In patent publication US20240360223A1 (DRAGONFLY THERAPEUTICS, published 2024):
Where two headings read alike, the source gives them in different places.

Key:
[1] = target: T1, human BAFF-R expressed on cells (human, UniProt Q96RJ3 1-184); assay: flow cytometry on hBAFFR-CHO cells, anti-mouse IgG(H+L)-PE
T1 construct: Cell surface BAFF-R, endogenous on B cell lines and primary B cells or overexpressed on isogenic CHO cells; also called hBAFF-R; hBAFF-R-CHO

[2] = target: T1, human BAFF-R expressed on cells; assay: flow cytometry, RAJI cells
Method: The BAFF-R positive human B lymphoblastoid RAJI cell line was used to assess TriNKET binding to cell surface BAFF-R. Certain BAFF-R TriNKETs in the 2-Fab and F3′ formats, as described in the “exemplary multispecific binding proteins” subsection above, were diluted and incubated with Raji cells. Binding patterns of TriNKETs and parental monoclonal antibodies were detected using a fluorophore conjugated anti-human IgG secondary antibody. The cells were then incubated with a fluorophore conjugated anti-human IgG secondary antibody and were analyzed by flow cytometry. The mean fluorescence intensity (MFI) values were normalized to secondary antibody only controls to obtain fold over background (FOB) values.

[3] = target: T1, human BAFF-R expressed on cells; assay: flow cytometry on hBAFFR-CHO cells
[4] = target: T2, cynomolgus monkey BAFF-R expressed on cells (cynomolgus monkey); assay: flow cytometry on cBAFFR-CHO cells
T2 construct: whole, on cells; also called cBAFF-R; cynoBAFF-R

[5] = target: T1, human BAFF-R expressed on cells; assay: blocking of BAFF-biotin on BAFF-R CHO cells
[6] = target: T1, human BAFF-R expressed on cells; assay: blocking of BAFF-biotin on hBAFF-R CHO cells, flow cytometry
Method: Briefly, CHO cells expressing human BAFF-R were harvested, washed in cold FACS buffer, and seeded at a density of 100,000 cells per well. Test articles were diluted in FACS buffer, and 50 μL of diluted multispecific binding protein or mAb was added to cells, incubated on ice for 60 minutes, then washed with FACS buffer. […] Cells were incubated with 100 μL of 1:200 streptavidin-PE diluted in FACS buffer and incubated on ice for 30 minutes then washed with FACS buffer. Cells were then incubated in 100 μL of 1:1,000 dilution of live/dead dye in PBS for 15 minutes, then washed with FACS buffer, and fixed. After incubation, cells were washed with FACS buffer and resuspended in FACS buffer for analysis with flow cytometry. Median fluorescent intensity (MFI) of each sample and the secondary-only control was calculated. […] Data were fit to a four-parameter non-linear regression curve using GraphPad Prism.

[7] = target: T1, human BAFF-R expressed on cells; assay: flow cytometry blocking assay on hBAFFR-CHO cells; blocked ligand: 20 nM BAFF-biotin
[8] = target: T1, human BAFF-R expressed on cells; assay: as above; remark: listed apart in the source
[9] = target: T1, human BAFF-R expressed on cells; assay: as above; remark: listed apart in the source
[10] = target: T1, human BAFF-R expressed on cells; assay: cell-based or functional assay
[11] = target: T1, human BAFF-R expressed on cells; assay: flow cytometry, BAFF-R-CHO cells
[12] = target: T1, human BAFF-R expressed on cells; assay: told of the group of Table 17, reference AB0369; format not given
[13] = target: T1, human BAFF-R expressed on cells; assay: flow cytometry, hBAFF-R+ cells
[14] = target: T2, cynomolgus monkey BAFF-R expressed on …; assay: flow cytometry, cyno BAFF-R CHO cells
[15] = target: T1, human BAFF-R expressed on cells; assay: flow cytometry, human BAFF-R CHO cells
[16] = target: T2, cynomolgus monkey BAFF-R expressed on …; assay: flow cytometry, cBAFF-R+ cells
[17] = target: T1, human BAFF-R expressed on cells; assay: flow cytometry, hBAFF-R+ cells; remark: listed apart in the source
[18] = target: T2, cynomolgus monkey BAFF-R expressed on …; assay: flow cytometry, cyno BAFF-R CHO cells; remark: listed apart in the source
[19] = target: T1, human BAFF-R expressed on cells; assay: flow cytometry, human BAFF-R CHO cells; remark: listed apart in the source
[20] = target: T1, human BAFF-R expressed on cells; assay: blocking of BAFF-biotin on hBAFF-R CHO cells
[21] = target: T1, human BAFF-R expressed on cells; assay: flow cytometry on hBAFFR-CHO cells, anti-mouse (H+L)-PE

B1: 3A1 (antibody, V domains shown)
VH: QVQLQQPGAELVKPGASVKLSCKASGYTFTSYWMHWVKQRPGQGLEWIGEIDPFDSYTNYNQNFKGKATLTVDKSSSTAYMLLSSLTSDDSAVYYCARERLRLWSYYFDYWGQGTTLTVSS
VL: DVVMTQTPLSLPVSLGDQASISCRSSQSIVHSNGNTYLEWYLQKPGQSPKLLIYKVSNRLSGVPDRFSGSGSGTDFTLKISRVEAEDLGVYYCFQGSHDPFTFGSGTKLEIK
notes: Mouse hybridoma mAb from DNA immunization; also called clone 3A1
With B1 as the binder, how does the “EC50 (read off the curve)” value [1] read?
Its value is about 0.3 nM.

B2: 7G4 (antibody, V domains shown)
VH: QVQLQQPGAELVKPGASVKLSCKASGYTFTSYWMHWVKQRPGQGLEWIGEVDPSDSYTNYNQKFKGKATLTVDKSSSTAYILLSNLTSDDSAVYYCARERVRLWSYFFDYWGQGTTLTVSS
VL: DVVMTQTPLSLPVSLGDQASISCRSSQSIVHSNGNTYLEWYLQKPGQSPKLLIYKVSNRLSGVPDRFSGSGSGTDFTLKISRVEAEDLGVYYCFQGSHDPFTFGSGTKLEIK
notes: Mouse hybridoma mAb from DNA immunization; also called clone 7G4
Which “EC50 (read off the curve)” value [1] does the source give for B2 here?
The value was about 0.3 nM.

B3: Ianalumab-mAb (antibody, V domains shown)
VH: QVQLQQSGPGLVKPSQTLSLTCAISGDSVSSNSAAWGWIRQSPGRGLEWLGRIYYRSKWYNSYAVSVKSRITINPDTSKNQFSLQLNSVTPEDTAVYYCARYQWVPKIGVFDSWGQGTLVTVSS
VL: DIVLTQSPATLSLSPGERATLSCRASQFILPEYLSWYQQKPGQAPRLLIYGSSSRATGVPARFSGSGSGTDFTLTISSLEPEDFAVYYCQQFYSSPLTFGQGTKVEIK
notes: Parental control mAb; also called Ianalumab-based tool-mAb; Tool-mAb
B3 was tested. Which EC50 [2] did it give?
Its EC50 is 0.003 nM.

And the “EC50 (read off the curve)” value [3]?
Its value is about 0.5 nM.

What about the “EC50 (read off the curve)” value [4] of the same binder?
Its value is about 0.4 nM.

And the IC50 [5]?
The IC50 was 0.38 nM.

What about the IC50 [6] of the same binder?
Its IC50 is 0.5 nM.

What about the “IC50 (read off the curve)” value [7] of the same binder?
Its value is about 0.4 nM.

And the “IC50 (read off the curve)” value [8]?
Its value is about 0.4 nM.

What about the “IC50 (read off the curve)” value [9] of the same binder?
Its value is about 0.8 nM.

B4: AB0605 (bispecific antibody, V domains shown)
VH: EVQLVQSGGGVVQPGRSLRLSCAASGFTFSSYGMHWVRQAPGKCLEWVAVIWYDGSNKYYGDSVKGRFTISRDNSKNTLYLQMNSLRDEDTAVYYCARRFTMLRGQYIEDYGMDVWGQGTTVTVSS
VL: not shown
notes: also called AB0605-001
Which “KHYG-A-CD16Av mediated Cytolysis of Ramos cells EC50” value [10] does the source give for B4 here?
Its value is 0.15 nM.

What about the EC50 [11] of the same binder?
The EC50 was 5.72 nM.

What about the “fold improvement in BAFF-R binding against AB0369” value [12] of the same binder?
Its value is over 3 fold.

B5: AB0899 (bispecific antibody, V domains shown)
VH: EVQLVQSGGGVVQPGRSLRLSCAASGFTFSSSGMHWVRQAPGKCLEWVAVIWYDASNKYYGDSVKGRFTISRDNSKNTLYLQMNSLRDEDTAVYYCARRFTYLRGWYIEDYGLDVWGQGTTVTVSS
VL: not shown
With B5 as the binder, how does the EC50 [13] read?
The EC50 was 4.3 nM.

B6: AB0682 (bispecific antibody, V domains shown)
VH: EVQLVQSGGGVVQPGRSLRLSCAASGFTFSSSGMHWVRQAPGKCLEWVAVIWYDGSNKYYGDSVKGRFTISRDNSKNTLYLQMNSLRDEDTAVYYCARRFTMLRGWYIEDYGMDVWGQGTTVTVSS
VL: not shown
notes: also called AB0682-001
With B6 as the binder, how does the EC50 [14] read?
The EC50 was 3.1 nM.

And the EC50 [15]?
The EC50 was 2.4 nM.

And the IC50 [5]?
The IC50 was 12.6 nM.

B7: AB1080 (bispecific antibody, V domains shown)
VH: EVQLVQSGGGVVQPGRSLRLSCAASGFTFSSYGMHWVRQAPGKCLEWVAVIWYDASNKYYGDSVKGRFTISRDNSKNTLYLQMNSLRDEDTAVYYCARRFTHLRGWYIEDYGLDVWGQGTTVTVSS
VL: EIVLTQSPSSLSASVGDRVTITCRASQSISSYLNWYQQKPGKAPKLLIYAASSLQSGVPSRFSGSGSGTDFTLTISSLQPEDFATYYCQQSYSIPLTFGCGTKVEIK
notes: also called AB1080-002; AB1080-003
Which results are given for B7?
EC50 [16]: 1.36 nM; EC50 [17]: 1.97 nM; EC50 [18]: 2.36 nM; EC50 [19]: 2.71 nM; IC50 [20]: 5.72 nM

B8: AB1081 (bispecific antibody, V domains shown)
VH: EVQLVQSGGGVVQPGRSLRLSCAASGFAFSSYGMHWVRQAPGKCLEWVAVIWYDESNKYYGDSVKGRFTISRDNSRNTLYLQMNSLRDEDTAVYYCARRFTNLRGWIIEDYGLDVWGQGTTVTVSS
VL: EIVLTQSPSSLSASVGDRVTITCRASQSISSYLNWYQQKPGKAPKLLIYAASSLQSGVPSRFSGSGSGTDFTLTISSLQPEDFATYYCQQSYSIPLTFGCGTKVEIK
notes: also called AB1081-002
With B8 as the binder, how does the EC50 [16] read?
The EC50 was over 14 nM.

And the EC50 [17]?
Its EC50 is over 8 nM.

B9: AB0679 (bispecific antibody, V domains shown)
VH: EVQLVQSGGGVVQPGRSLRLSCAASGFPFSSYGMHWVRQAPGKCLEWVAVIWYDGSNKYYGDSVKGRFTISRDNSKNTLYLQMNSLRDEDTAVYYCARRFTMLRGWYIEDYGMDVWGQGTTVTVSS
VL: not shown
notes: also called AB0679-001
How did the EC50 [14] turn out when B9 was run?
Its EC50 is 2.6 nM.

What about the EC50 [15] of the same binder?
The EC50 was 2.3 nM.

And the IC50 [5]?
The IC50 was 9.4 nM.

B10: AB1085 (bispecific antibody, V domains shown)
VH: EVQLVQSGGGVVQPGRSLRLSCAASGFTFGSYGMHWVRQAPGKCLEWVAVIWYDGSNKYYGDSVKGRFTISRDNSKNTLYLQMNSLRDEDTAVYYCARRFTHLRGQYIEDYGMDVWGQGTTVTVSS
VL: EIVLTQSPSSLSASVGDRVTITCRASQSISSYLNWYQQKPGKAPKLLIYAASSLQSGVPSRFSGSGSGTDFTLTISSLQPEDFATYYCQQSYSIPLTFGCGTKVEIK
notes: also called AB1085-001
B10 was tested. Which EC50 [16] did it give?
The EC50 was 4.34 nM.

And the EC50 [17]?
The EC50 was 5.78 nM.

And the EC50 [18]?
Its EC50 is 3.29 nM.

And the EC50 [19]?
Its EC50 is 4.48 nM.

And the IC50 [20]?
The IC50 was 12.7 nM.

B11: AB0622 (bispecific antibody, V domains shown)
VH: EVQLVQSGGGVVQPGRSLRLSCAASGFTFSSYGMHWVRQAPGKCLEWVAVIWYDGSNKYYGDSVKGRFTISRDNSKNTLYLQMNSLRDEDTAVYYCARRFTMLRGWIIEDYGMDVWGQGTTVTVSS
VL: not shown
notes: also called AB0622-001
What does the source list for B11?
KHYG-A-CD16Av mediated Cytolysis of Ramos cells EC50 [10]: 0.09 nM; EC50 [11]: 3.45 nM; fold improvement in BAFF-R binding against AB0369 [12]: > 3 fold

B12: AB0606 (bispecific antibody, V domains shown)
VH: EVQLVQSGGGVVQPGRSLRLSCAASGFTFSSYGMHWVRQAPGKCLEWVAVIWYDGSNKYYGDSVKGRFTISRDNSKNTLYLQMNSLRDEDTAVYYCARRFTMLRGWYIEDYGMDVWGQGTTVTVSS
VL: not shown
notes: also called AB0606-001
With B12 as the binder, how does the “KHYG-A-CD16Av mediated Cytolysis of Ramos cells EC50” value [10] read?
The value was 0.06 nM.

What about the EC50 [11] of the same binder?
Its EC50 is 4.5 nM.

And the “fold improvement in BAFF-R binding against AB0369” value [12]?
Its value is over 3 fold.

B13: AB0898 (bispecific antibody, V domains shown)
VH: EVQLVQSGGGVVQPGRSLRLSCAASGFTFSSSGMHWVRQAPGKCLEWVAVIWYDASNKYYGDSVKGRFTISRDNSKNTLYLQMNSLRDEDTAVYYCARRFTRLRGWYIEDYGLDVWGQGTTVTVSS
VL: not shown
For B13, which EC50 [13] is on record?
Its EC50 is 4.3 nM.

B14: AB0900 (bispecific antibody, V domains shown)
VH: EVQLVQSGGGVVQPGRSLRLSCAASGFTFSSSGMHWVRQAPGKCLEWVAVIWYDASNKYYGDSVKGRFTISRDNSKNTLYLQMNSLRDEDTAVYYCARRFTSLRGWYIEDYGLDVWGQGTTVTVSS
VL: not shown
Which EC50 [13] does the source give for B14 here?
Its EC50 is 11.7 nM.

B15: 10H7-C5 (antibody, V domains shown)
VH: EVQLVESGGGLVKPGGSLKLSCAASGFSFSRYAMSWVRQTPEKRLEWVATISDGGSYTHYRDNVKGRFTISRDNAKNNLNLQMSHLKSEDTAIYYCARNEMGLYFDYDVYAMDYWGQGTSVTVSS
VL: DIVMTQTPLSLPVSLGDQASISCRSSQSLLHSNGNTYLYWYLQKPGQSPKLLIHRVSNRFSGVPDRFGGSGSGTDFTLKIIRVEAEDLGVYFCFQGTHVPWTFGGGTKLEIK
notes: Mouse hybridoma mAb from DNA immunization; also called clone 10H7-C5
With B15 as the binder, how does the “EC50 (read off the curve)” value [21] read?
Its value is 1 to 10 nM.

B16: 1B3-A7 (antibody, V domains shown)
VH: EVQLVESGGGLVKPGGSLKLSCVVSGFTFSNYAMSWVRQTPEKRLEWVATISDGGGYTYYPDSVKGRFTISRDNAKNNLYLQMSHLKSEDTAIYYCARDDLGGGNYVSSYFDVWGTGTTVTVSS
VL: DVVMTQTPLSLPVSPGDQASISCRSSQSLVHSNGNTYLYWYLQKPGQSPKLLIYRVSNRFSGVPDRFSGSGSGTDFTLKINRVEAEDLGVYFCFQGTHVPLTFGSGTKLELK
notes: Mouse hybridoma mAb from DNA immunization; also called clone 1B3-A7
How did the “EC50 (read off the curve)” value [21] turn out when B16 was run?
Its value is about 2 nM.
